# Experiment: yeast display, Sf9 membrane polyspecificity reagent, FACS + sequencing; frameworks hold sequencing errors
# Summary of the method: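 A synthetic nanobody library was expressed on Saccharomyces cerevisiae BJ5465 by galactose induction for 36–48 hours. The library was stained for 1 hour at 4 °C with 10% biotinylated, detergent-solubilized Sf9 membrane reagent and enriched with streptavidin microbeads before FACS. Low and high (top ~1%) gates were set on anti-HA fluorescence for expression and streptavidin fluorescence for reagent binding, and each polyreactivity label reflects the gate of origin.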
row,Sequence,polyreactivity (PSR sort gate)
1,QVQLVESGGGLVQEGGSLRLSCAASGSTFWGYAMGWYRQAPGKERELVATITTGGSTNYADSVKGRFTISRDNAKNTVYLQMNSLKPEDTAVYYCAAERLFRFWYSAYERYDYCGQGTQVTVSS,low polyreactivity
2,QVQLVESGGGLVQEGGSLRLSCAASRRTFRLYVMGWYSQAPGKERELVAAITWRGRTTYYAHSVKGRFTISRDNAKNTVYLQMNSLKPEDTAVYYCATTRYPRSYQEFGYWGQGTQGTVSS,high polyreactivity
3,QVQLVESGGGLVQEGGSLRLSCAGSGRTFTFNVMGWYRQAPGKEREFVAAITGTDGSTYYADSVKGRFTISRDNAKNTVYLQMNSLKPEDTAVFYCAARYDWGYVDPGDYWGQGTQVTVSS,high polyreactivity
4,QVQLVESGGGLVQEGGSLRLSCAPSGRTFAKYAMGWYRQSPGKERELVAAITRGDTTNYADSVKGRFTISRDNAKNTVYLQMNSLKPEDTAVYYCAATPDPPHTYEYWGQGTQVTVSS,low polyreactivity
5,QVQLVESGGGLVQEGGSVRFSCAASGSISKPNARGWYRQAAGKERELVASITRGGIPNYADSVKGRVTISRDNAKNTVYLQMNSLKPEDTAVYDCAAFYAYSKYSYNIRFYYWGQGTQVTVAS,high polyreactivity
6,QVQLVESGGGLVQGGGSLRLSCAASGFIFDGNAMGWSRQAPGKEREFVASNSGSGDSTYYADSVKGRFTISRDNAKNTVYLQMNSLKPEDTAVYYCAYEGTPWASGNDYWGQGTQVTVSS,low polyreactivity
7,QVQLVESGGGLVQGGGSLRLSCAASGRTFAPNAMGWYRQAPGKERELVAAISYNSGTTYYADSVKGRFTISRDNAKNTVYLQMNSLKPEDTAVYYCAAGHWVGPYQAMEYWGQGTQVTVSS,high polyreactivity
8,QVQLVESGGGLVQGGSLRLSCAASGFTFPIYVMGWSRHAPGKEMELVASISSVGSTNYADSVKGRFTISRDNSKNTVYLQMNSLKPEDTAVYYCNADDPNSYGGFDYWGQGTQVTVSS,low polyreactivity
9,QVQLVESGGGLVQPGGILRLSCAASGYTFQVYAMGWYRQAPGKEREMVASIRWRGGRTYYADSVKGRFTISRDNAKNTVYLQMNSLKPEDTAVYYCAARQYVIYQTYYTYYYWGQGTQVSVSS,high polyreactivity
10,QVQLVESGGGLVQPGGSLRISCAASASTFFPYAMGWYRQAPGKERELVAAITGSGGSTYYADSVKGRFTISRDNAKNTVYLQMNSLKPEDTAVYYCNAVWEYYGKSDYWGQGTQVTVSS,low polyreactivity
11,QVQLVESGGGLVQPGGSLRLIFAASGSIFHYNAIGWYTQAPGKEREFVAVISKSSGSTFYADSVKGRFTISRDNAKNTVYLQMNSLKPEDTAVYYCNLVTKRYPIIGNYWGQGSQVTVSS,high polyreactivity
12,QVQLVESGGGLVQPGGSLRLSCAASGFILYGNAMGWYRQAPGKERELVAAISRRGGSTYYADSVKGRFTISRDNAKNTVYLQMNSLKPEDTAVYYCAKDGPGGGTRIYDYWGQGTQVTVSS,high polyreactivity
13,QVQLVESGGGLVQPGGSLRLSCAASGFTFRGYDMGWYRQAPGTERELVAGITWGDDSTYYADSVKGRFTISRDNAKNTVYLQMNSLKPEDTAVYYCATYFRVYYSQYDYWGEGTQVTVSS,high polyreactivity
14,QVQLVESGGGLVQPGGSLRLSCAASGRIFGWYARGWYRPAPGKERELVAAISRGGTRTNYADSVKGRFTISRDNAKNTVYLQMNSLKPEETAVYYCAARRYSRDFDYWGQGTQVTVSS,high polyreactivity
15,QVQLVESGGGLVQPGGSLRLSCAASGRIQRYYAMGWYRQAPGKERELVAVITSSDGSTYYADSVKGRFTISRDNAKNTVYLQMNRLKPEDTAVYYCAAAPLWRLASWWDPYRRYDYWGQGTLVTVSS,low polyreactivity
16,QVQLVESGGGLVQPGGSLRLSCAASGRTFGYNAMGWYRQAPGKERELVAAIRYSGGSTYYADSVKGRFTISRDNAKNTVYLQMNSLKPEDTAVYYCAAYSLFSSYGNDYWGQGTQVTVSS,high polyreactivity
17,QVQLVESGGGLVQPGGSLRLSCAASGRTIGVYAMGWYRQAPGKERELVAAITTSGDSTYYADSVKGRFTISRDNAKNTVYLQMNSLKPEDTAVYYCAADYYYVYSSFGHYYWGQGTQVTVSS,low polyreactivity
18,QVQLVESGGGLVQPGGSLRLSCAASGRTYYINAMGWYRQAPGKERELVATISKSGGSTNYADSEKGRFTISRDNAMNTFYLQMNSLKPEDTAVYYCAADTSGGSWGRGRWKFGYWGQGTQVTVSS,high polyreactivity
19,QVQLVESGGGLVQPGGSLRLSCAASGSIFYWYNMGWYRQAPGKERELVAAINDSGGSTHYADSVKGRFTISRDNEKNTFYLQMNSLKPEDTAVYYCAARKLSSYAYDYWGQGTQVTVSS,low polyreactivity
20,QVQLVESGGGLVQPGGSLRLSCAASGSTFSGYTMGWYRQAPGKERELVASISSGVSTYYADSVKGRFTISRDNAKNTVYLQMNSLKPEDTAVYYCAADSVGDYGYQVYASWGYEDEYWGQGTQVTVSS,low polyreactivity
21,QVQLVESGGGLVQPRGSLSLSCAASGYIFDYYDMGWYRPAPGKERELVAAISSSGGTTYYADSVKGRFTISRDNGKNTVYLQMNSLKPEDTAVYYCAAVAVLPRSDYWGQGTQVTVSS,high polyreactivity
22,QVQLVESGGGLVQSGGSLLLSCAPSGSTFYEYALGGYRQAPGKDRELVAAITSGGSTYYADSVKGRFTISRDNAKNNDYLQMNSLKPEETAVYYCAADPRIRRGDRSTHGYDYWGQGTQVTVSS,low polyreactivity

row,Sequence,polyreactivity (PSR sort gate)
1,QVQLVESGGGLVQSGGSLRLSCAASGGTFVPYAMGWDIQAPGKERELVARISKRGGTTYYADSVKGRFTISRDTAKITVYLQMNSLKPEDTAVSSCAAVLPARGYYWGQGTQVTVSS,high polyreactivity
2,QVQLVESGGGLVQSGGSLRLSCAASGIIFLDYVMVWYRQAPGKERELVAAISLSAGSTNYADSVKGRFTISRDNAKNTVYLQMNSLKPEDTAVYYCAAEVLAVRDDGYRSDEMDYWGQGTQVTVSS,low polyreactivity
3,QVQLVESGGGLVQSGGSLRLSCAASGRIFRKYVMAWYRPAPGNERELVATISNRVGSTYYADSVKGRFTISRDKAKNTVYLQMNSLKPEDTAVYYCAAVSSYTAYDYWGQGTQVTVSS,high polyreactivity
4,QVQLVESGGGLVQSGGSLRLSCAASGRTFKYNAMGWYRQAPGKERELVAVIRYSGGTTYYADSVKGRFTISRDNAKNTVYLQMNSLKPEDTAVYYCAADSWSRSVNYYYWGQGTQVTVSS,low polyreactivity
5,QVQLVESGGGLVQSGGSLRLSCAASGRTYGYNAMGWYRQAPGKERELVAAISRSGDSTYYADSVKGRFTISRDNAKNTVYLQMNSLKPEDTAVYYCATRYVTTGYDYWGQGTQVTVSS,low polyreactivity
6,QVQLVESGGGLVQSGGSLRLSCAASGSFYYFYSMGWYRQAPGKEREVVAANTDGGSTHYAESVKGRFTISRDNAKNTVYLQMNSMKPEDTAVYSCAAQWHYYLGSGYQYDYWGQGTQVTVSS,low polyreactivity
7,QVQLVESGGGLVQSGGSLRLSCAASGSIFGSNAMGWYRQAPGKERELVAAISRSGTSTYYADSVKGRFTISRDNAKNTVDLQMTSLKPEDSAVYYSNTAQRYRVYRYDYWGQGTQVTVSS,high polyreactivity
8,QVQLVESGGGLVQSGGSLRLSCAASGSIFIYYAMGWYRHAPGKERELVAAIDYSGDSTYYADSVKGRFTISRDNAKNTVYLQMNSLKPEDTAVYDCAVYYAGWGDYWGQGTQVTVSS,low polyreactivity
9,QVQLVESGGGLVQSGGSLRLSCAASGSTFVSNAMGWYRQAPGKERELVAAINGSGGITYYADSVKGRFTISRDNAKNTVYLQMNSLKPEDTAVYYCAAEYDGPSTWVDYYYHYGYWGQGTQVTVSS,low polyreactivity
10,QVQLVESGGGLVQSGGSLRLSCAASGSTLTFNAMGWYRQAPGKERELVAAISWSDTDTYYADSVKGRFTISRDNAKNTVYLQMNSLKPEDTAVYYCAATLSAYEMDYWGQGTQVTVSS,low polyreactivity
11,QVQLVESGGGLVQSGGSLRLSCAAYGNFFANNSMGWYRQAPGKERELVAAISQSGGNTYYADSVKGRFTISRDNAKNTVYLQMNSLKPEDTADYYCNAKTYGYNYDSWGQGTQVTVSS,low polyreactivity
12,QVQLVESGGGLVQSGGSLRLSSAAYGFIFPGNAMGWSRQAPGKEREMVAAISNSGSRTYYADSVKGRFTISRDHAKNTVYLQMNSLKPEDTAVYYCNADVHNRGWPYDYWGQGTQVTVSS,low polyreactivity
13,QVQLVESGGGLVQSGRSLRLICAASGSTSTQYAMGWYRQAPGKERELVAGITQSGGSTYYADSVKGRFTISRDNAKNTVYLQMNSLKPEDTAVYYCAAPPGYTGRYEYYYWGQGTQVTVSS,high polyreactivity
14,QVQLVESGGGLVQSRGSLRLSWAASGSTFTYNTMGWYRQAPGKERELVAAISSGGSTYYADSVKGRFTISRDNAKNTVFLQMNSLKPEDTAVYYCAATAQKDSRYGSRYYYWGQGTQVTVSS,high polyreactivity
15,QVQLVESGGGLVQTGGSLRLSCAASGRIFRSYAMGWNRQAPGKERELVAAISGSGGSTYYADSVKGRFTISRDNAKNTVSLQMNSLKPEDTAVYYCTAGKVHPFSTRFYYWGQGTQVTVSS,low polyreactivity
16,QVQLVESGGGLVQTGGSLRLSCAASGRILYTNAMGWYRQAPGKERELVAAISSGGRTTYADSVKGRFTISRDNAKNTVYLQMNSLKPEDTAVYYCAAGIRIYGTKRSRGYGYWGQGTQVTVSS,high polyreactivity
17,QVQLVESGGGLVQTGGSLRLSCAASGSTFYPNTMGWYRQAPGKERELVAAITNGGSTNYADSVKGRFTISRDNAKNTVYLQMNSLKPEDTAVYYCAALYYRFLLGWYKYGYWGQGTQVTVSS,high polyreactivity
18,QVQLVESGGGLVQVGCSLRLICAASGRTFWWYAMGGYRQAPGKERELVAAISRGSTNYADSVKGRFTISRDNAKNTVYLQMNSLKPEDTAVYYCNAVSLYQSHDYDYWGQGSQVTVSS,low polyreactivity
19,QVQLVESGGGLVQVGGSLRLSCAASGRTFGRYAMGWYRQAPGKERELVAAINSVARTNYADSVKGRFTISRDNAKNTVYLHMNSLKPEDTAVYYCAARYYYSGVTHAKRIAYYYWGQGTQVTVSS,high polyreactivity
20,QVQLVESGGGLVQVGGSLRLSCAASGRTVWWYAMGWYRQAPGKERELVAAISRGSTNYADSVKGRFTISRDNAKNTVYLQMNSLKPEDTAVYYCNAVSLYQSHDYDYWGQGTQVTVSS,low polyreactivity
21,QVQLVESGGGLYQAGGSLRLSSAASGRIFPWNTMGWYRQAPGKERELVAGINNGDRTYYADSVKGRFTISRDNAKNTVYLQMNSQKPEDTAVYYCAVDTWYFLFQYGYYQEGDYWGQGTQVTVSS,low polyreactivity
